According to article PMC1334386 (PLoS Biology, 2006):
Values belong to the binder of their own block, whether it stands above or below them.

Legend:
Conditions in all cases: both partners purified
[1] = molecular target: T1, HAUSP TRAF-like domain (residues 53–206) (UniProt Q93009 53-206); assay: SEC; gel filtration on Superdex-200 (10/30); proteins incubated at 4 °C for at least 45 min; 25 mM Tris (pH 8.0), 100 mM NaCl, 2 mM DTT; fractions on SDS-PAGE, Coomassie
T1 construct: Cloned into pGEX-2T; source: E. coli BL21(DE3), purified to homogeneity
T1 sequence (Q93009 53-206): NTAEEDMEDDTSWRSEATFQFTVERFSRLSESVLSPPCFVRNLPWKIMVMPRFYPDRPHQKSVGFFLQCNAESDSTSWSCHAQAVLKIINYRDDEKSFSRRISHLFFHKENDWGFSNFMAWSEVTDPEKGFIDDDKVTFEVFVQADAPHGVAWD

[2] = molecular target: T1, HAUSP TRAF-like domain (residues 53–206); assay: ITC; 10 mM HEPES (pH 8.0), 100 mM NaCl; 4 °C
[3] = molecular target: T2, HAUSP TRAF-like domain (residues 1–206) (UniProt Q93009 1-206); assay: SEC; gel filtration on Superdex-200 (10/30); proteins incubated at 4 °C for at least 45 min; 25 mM Tris (pH 8.0), 100 mM NaCl, 2 mM DTT; fractions on SDS-PAGE, Coomassie
T2 construct: Construct not described in the methods; source: purified to homogeneity as previously described
T2 sequence (Q93009 1-206): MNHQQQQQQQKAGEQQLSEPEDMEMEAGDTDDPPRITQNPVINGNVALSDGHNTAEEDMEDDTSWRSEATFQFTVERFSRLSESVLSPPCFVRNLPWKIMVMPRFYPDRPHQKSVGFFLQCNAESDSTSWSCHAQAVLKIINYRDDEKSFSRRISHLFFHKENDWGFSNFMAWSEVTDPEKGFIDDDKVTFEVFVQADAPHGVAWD

B2: MDM2 fragment (residues 170–232) (domain or fragment, human, UniProt Q00987 170-232, looked up)
chain: ENSDELSGERQRKRHKSDSISLSFDESLALCVIREICCERSSSSESTGTPSNPDLDAGVSEHS
notes: source: purified to homogeneity as previously described
- binding result [1]: binds

B4: MDM2 (residues 208–289) (domain or fragment, human, UniProt Q00987 208-289, looked up)
chain: ERSSSSESTGTPSNPDLDAGVSEHSGDWLDQDSVSDQFSVEFEVESLDSEDYSLSEEGQELSDEDDEVYQVTVYQAGESDTD
notes: also called MDM2 fragment; source: purified to homogeneity as previously described
- binding result [3]: binds

Next, values leading:

- binding result [1]: binds
B1: MDM2 fragment (residues 223–289) (domain or fragment, human, UniProt Q00987 223-289, looked up)
chain: DLDAGVSEHSGDWLDQDSVSDQFSVEFEVESLDSEDYSLSEEGQELSDEDDEVYQVTVYQAGESDTD
notes: as for B2

- Kd [2]: 3000 nM
B3: MDM2 peptide (residues 208–242) (peptide, UniProt Q00987 208-242, looked up)
peptide: ERSSSSESTGTPSNPDLDAGVSEHSGDWLDQDSVS
notes: human MDM2, residues 208-242; also called MDM2 (residues 208–242) peptide
